Results on four compounds are retold here after article PMC9646914, “Nicking mechanism underlying the DNA phosphorothioate-sensing antiphage defense by SspE” (Nature Communications, 2022).

pKd: −log10 of the molar value.

Data set [1] concerns SspE (Streptomyces yokosukanensis DSM 40224). The data set is described as follows: MST. As to conditions: EMSA: 10 mM Tris-HCl pH 8.0 (20 mM in Fig 3 legend), 100 mM NaCl, 0.01 mM EDTA, 5% glycerol, 15 min 30 C, MST: 10 mM Tris-HCl pH 8.0, 100 mM NaCl, 12.5 nM DNA …. For orientation: A gel shift assay detects complexes by their altered migration in electrophoresis.
Data set [2] deals with T1, SspE (Streptomyces yokosukanensis, UniProt A0A6I8WFL9).
T1 construct: full length, 771 residues (2,313-bp gene); NTD 1-324 GTPase (DGQQR motif 96-100), CTD 332-771 HNH nickase; expressed in E. coli BL21(DE3), Ni-NTA and Superdex 200
The data set is described as follows: malachite green phosphate release (QuantiChrom ATPase/GTPase kit). The class given is biochemical. As to conditions: 100 uM GTP, 1 uM protein, alone or with 1 uM 40-bp DNA with or without phosphorothioate; Mg acetate 10 mM, pH 7.9, 28 C.

In data set [3] the test system is SspE-CTD (Streptomyces yokosukanensis DSM 40224). The data set is described as follows: EMSA. The conditions noted are these: EMSA: 10 mM Tris-HCl pH 8.0 (20 mM in Fig 3 legend), 100 mM NaCl, 0.01 mM EDTA, 5% glycerol, 15 min 30 C; MST: 10 mM Tris-HCl pH 8.0, 100 mM NaCl, 12.5 nM DNA ….
For data set [4], the system named is SspE K40A (Streptomyces yokosukanensis DSM 40224). The data set is described as follows: EMSA. The conditions noted are these: EMSA: 10 mM Tris-HCl pH 8.0 (20 mM in Fig 3 legend), 100 mM NaCl, 0.01 mM EDTA, 5% glycerol, 15 min 30 C; MST: 10 mM Tris-HCl pH 8.0, 100 mM NaCl, 12.5 nM DNA ….
Data set [5] concerns SspE (Streptomyces yokosukanensis DSM 40224). The data set is described as follows: EMSA. The conditions noted are these: EMSA: 10 mM Tris-HCl pH 8.0 (20 mM in Fig 3 legend), 100 mM NaCl, 0.01 mM EDTA, 5% glycerol, 15 min 30 C; MST: 10 mM Tris-HCl pH 8.0, 100 mM NaCl, 12.5 nM DNA ….

T1 sequence (A0A6I8WFL9 entry or part of it): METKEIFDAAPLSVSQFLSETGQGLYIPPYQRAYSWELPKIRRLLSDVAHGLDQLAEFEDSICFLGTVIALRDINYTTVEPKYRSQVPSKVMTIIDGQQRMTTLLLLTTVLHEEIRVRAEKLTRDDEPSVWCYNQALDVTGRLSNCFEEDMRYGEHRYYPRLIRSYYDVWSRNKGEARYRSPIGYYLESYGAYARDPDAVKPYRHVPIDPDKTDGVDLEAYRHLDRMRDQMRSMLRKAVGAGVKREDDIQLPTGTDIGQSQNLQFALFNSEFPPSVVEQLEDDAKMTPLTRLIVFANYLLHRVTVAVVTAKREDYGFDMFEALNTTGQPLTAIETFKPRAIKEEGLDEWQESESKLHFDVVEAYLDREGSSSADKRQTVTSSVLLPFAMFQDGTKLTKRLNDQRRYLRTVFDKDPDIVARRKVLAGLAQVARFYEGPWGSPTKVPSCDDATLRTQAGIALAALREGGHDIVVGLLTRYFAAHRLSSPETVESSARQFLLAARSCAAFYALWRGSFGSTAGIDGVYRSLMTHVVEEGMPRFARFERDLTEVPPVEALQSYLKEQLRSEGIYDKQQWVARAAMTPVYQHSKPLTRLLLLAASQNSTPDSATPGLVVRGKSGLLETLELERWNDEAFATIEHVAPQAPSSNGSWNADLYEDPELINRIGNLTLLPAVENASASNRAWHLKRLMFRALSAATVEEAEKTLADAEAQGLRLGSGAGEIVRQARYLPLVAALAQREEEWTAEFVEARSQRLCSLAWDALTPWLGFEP

For 2-kb non-PT DNA (CCA), the pKd (usually the negative decadic logarithm of the Kd, by convention in mol/L) in data set [1] was 4.74.
In turn, 2-kb PT DNA (CpsCA at both termini) gave a pKd in data set [1] (phosphorothioate C12-C13 of primer #7 and C17-C18 of primer #8) of 5.07.
`Nc1nc2c(ncn2[C@@H]2O[C@H](COP(=O)(O)OP(=O)(O)OP(=O)(O)O)[C@@H](O)[C@H]2O)c(=O)[nH]1` [GTP]: the GTPase activity entry in data set [2] was “The GTP hydrolysis activity of SspE and its mutants was assayed”.
On to linearized pUC19, for which the results for the pKd in data set [3], in data set [4] and in data set [5] were 5.52, 4.65 and 4.75, respectively.
